# Results: article PMC4883780
# What was measured:
# [1] = target: human vascular endothelial growth factor 165 (hVEGF), E. coli-derived, after tag cleavage (human); assay: SEC; SEC-HPLC, Protein-pak 300SW SEC 7.5 x 300 mm column, 1X PBS pH 7.4, room temperature, 1 mL/min, detection at 280 nm; peaks checked on non-reducing SDS-PAGE
# [2] = target: human vascular endothelial growth factor 165 (hVEGF), E. coli-derived, after tag cleavage (human); assay: non-reducing SDS-PAGE; purified hVEGF in sample buffer with SDS, without DTT (non-reducing) against with 100 mM DTT (reducing), tricine SDS-PAGE, Coomassie stain; shows disulfide-linked forms
substance,measurement,setting,value
"human vascular endothelial growth factor 165 (hVEGF), E. coli-derived, after tag cleavage (ligand)",stoichiometry N,[1],2
same,stoichiometry N,[2],2
